Test results taken from PMC10128974, “Sulfonylpiperazine compounds prevent Plasmodium falciparum invasion of red blood cells through interference with actin-1/profilin dynamics” (PLOS Biology, 2023).

B1: Plasmodium falciparum profilin (natural protein)
chain: MAEEYSWDSYLNDRLLATNQVSGAGLASEEDGVVYACVAQGEESDPNFDKWSLFYKEDYDIEVEDENGTKTTKTINEGQTILVVFNEGYAPDGVWLGGTKYQFINIERDLEFEGYNFDVATCAKLKGGLHLVKVPGGNILVVLYDEEKEQDRGNSKIAALTFAKELAESSQ

Legend:
[1] = target: T1, PfACT1 with PfPFN (P. falciparum actin-1/profilin) (Plasmodium falciparum, UniProt Q8I2J4+Q8I4X0); experiment: actin cosedimentation by ultracentrifugation, SDS-PAGE densitometry; format: biochemical; settings: 4 uM PfACT1, 16 uM PfPFN, 25 uM compound, 50 mM KCl, 4 mM MgCl2, 1 mM EGTA, 0.5 mM ATP, 2.5% DMSO, pH 7.5, about 22 C, 16 h, binding site not located
T1 construct: gene ACT1; PfACT1 from S. frugiperda Sf21 cells (baculovirus)
Text: actin cosedimentation by ultracentrifugation, SDS-PAGE densitometry on PfACT1 with PfPFN (P. falciparum actin-1/profilin) | S-W827, decreased the amount of actin in the pellet further to | All MMV291 analogues, S-MMV291, R-MMV291, S-W936, R-W936, S-W414, and S-W827, decreased the amount of actin

[2] = target: Plasmodium falciparum actin-1 (P. falciparum) (UniProt Q8I4X0)
Chain of Plasmodium falciparum actin-1 (P. falciparum) (Q8I4X0 whole entry): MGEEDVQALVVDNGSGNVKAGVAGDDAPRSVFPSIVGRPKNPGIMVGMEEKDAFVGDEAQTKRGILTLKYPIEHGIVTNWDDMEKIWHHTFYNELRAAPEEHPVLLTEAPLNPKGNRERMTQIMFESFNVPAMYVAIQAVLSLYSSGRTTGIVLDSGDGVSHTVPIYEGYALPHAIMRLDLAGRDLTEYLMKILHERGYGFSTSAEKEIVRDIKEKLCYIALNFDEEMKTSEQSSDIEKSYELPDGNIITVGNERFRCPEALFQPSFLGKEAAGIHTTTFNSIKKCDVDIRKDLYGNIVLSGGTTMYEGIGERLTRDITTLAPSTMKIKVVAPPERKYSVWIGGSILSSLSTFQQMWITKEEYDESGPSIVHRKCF

T1 sequence (Q8I4X0 whole entry, one chain of several): as the sequence (Q8I4X0 whole entry) above

Molecule	% PfACT1 in pellet at 25 uM [1] [%]	relative amount of PfACT1 (4 uM) in the pellet fraction of the sedimentation assay under polymerizing conditions with PfPFN (16 uM), DMSO [2] [%]	relative amount of PfACT1 (4 uM) in the pellet fraction of the sedimentation assay with PfPFN (16 uM) and R-MMV291 (25 uM) [2] [%]	relative amount of PfACT1 (4 uM) in the pellet fraction of the sedimentation assay with PfPFN (16 uM) and R-W936 (25 uM) [2] [%]	relative amount of PfACT1 (4 uM) in the pellet fraction of the sedimentation assay with PfPFN (16 uM) and S-MMV291 (25 uM) [2] [%]	relative amount of PfACT1 (4 uM) in the pellet fraction of the sedimentation assay with PfPFN (16 uM) and S-W414 (25 uM) [2] [%]	relative amount of PfACT1 (4 uM) in the pellet fraction of the sedimentation assay with PfPFN (16 uM) and S-W827 (25 uM) [2] [%]	relative amount of PfACT1 (4 uM) in the pellet fraction of the sedimentation assay with PfPFN (16 uM) and S-W936 (25 uM) [2] [%]
CC(C(=O)N1CCCC1)N1CCN(S(=O)(=O)c2ccc(C(C)(C)C)cc2)CC1 (racemic) [S-MMV291]	11 ± 1							
CC(C(=O)N1CCCC1)N1CCN(S(=O)(=O)c2ccc(C(C)(C)C)cc2)CC1 (racemic) [R-MMV291]	15 ± 2							
B1		21	15	10	11	9	5	8
